Test results reported in PMC2292230.
pKd: −log10 of the molar value. Read-outs that look alike come from different tables or passages of the source.

Experiments:
Assay in all cases: SPR
[1] = target: mouse CD1d loaded with α-GalCer (mouse) (UniProt P11609)
[2] = target: human CD1d loaded with α-GalCer, wild type (human) (UniProt P15813)
[3] = target: human CD1d Arg79 to Ala mutant loaded with α-GalCer (human)
[4] = target: human CD1d Gln150 to Ala mutant loaded with α-GalCer (human)
[5] = target: human CD1d Lys86 to Ala mutant loaded with α-GalCer (human)
[6] = target: human CD1d Met87 to Ala mutant loaded with α-GalCer (human)
[7] = target: human CD1d Val147 to Ala mutant loaded with α-GalCer (human)
[8] = target: human CD1d loaded with α-GalCer, wild type (human) (UniProt P15813); remark: listed apart in the source

Sequence of UniProt P11609 (P11609 22-336): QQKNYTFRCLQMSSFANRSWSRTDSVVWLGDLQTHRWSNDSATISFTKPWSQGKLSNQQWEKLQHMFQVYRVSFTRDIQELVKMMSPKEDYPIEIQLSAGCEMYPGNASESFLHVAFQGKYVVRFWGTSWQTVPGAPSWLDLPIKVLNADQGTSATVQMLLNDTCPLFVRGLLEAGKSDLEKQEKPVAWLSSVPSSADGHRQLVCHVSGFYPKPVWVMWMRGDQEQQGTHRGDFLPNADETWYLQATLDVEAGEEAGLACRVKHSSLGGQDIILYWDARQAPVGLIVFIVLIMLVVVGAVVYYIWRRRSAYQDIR
Sequence of UniProt P15813 (P15813 20-301): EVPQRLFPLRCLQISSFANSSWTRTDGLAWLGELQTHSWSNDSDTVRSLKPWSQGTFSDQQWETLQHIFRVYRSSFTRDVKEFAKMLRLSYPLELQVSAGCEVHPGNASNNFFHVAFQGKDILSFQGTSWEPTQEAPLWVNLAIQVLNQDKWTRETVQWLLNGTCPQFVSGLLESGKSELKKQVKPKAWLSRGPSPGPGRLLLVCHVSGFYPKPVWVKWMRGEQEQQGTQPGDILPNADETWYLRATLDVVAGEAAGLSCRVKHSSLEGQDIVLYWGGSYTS

Substance	pKd [1]	pKd [2]	further results
human NKT TCR (NKT15) Arg103α to Ala mutant	5.59		
human NKT TCR (NKT15) Asn53β to Ala mutant	5.92	6.14	
human NKT TCR (NKT15) Gly96αAla mutant	5.92	5.97	
human NKT TCR (NKT15) Pro28αAla mutant	5.32	5.26	

More lines, in order of rising pKd [1], values ahead:

pKd [1]	pKd [2]	Substance	further results
5.94		human NKT TCR (NKT15) Ser30αAla mutant	
6.03	6.34	human NKT TCR (NKT15), wild type	pKd [3]: 6.46; pKd [4]: 5.60; pKd [5]: 5.55; pKd [6]: 5.10; pKd [7]: 5.44; pKd [8]: 6.24
6.09	6.15	human NKT TCR (NKT15) Tyr103βAla mutant	
6.14		human NKT TCR (NKT15) Glu56β to Ala mutant	
